{
  "source": "patent US20100254965A1",
  "about": "“Adenosine Signaling in Diagnosis, Treatment, and Prevention of Priapism and Erectile Dysfunction” (BOARD OF REGENTS ,THE UNIVERSITY OF TEXAS SYSTEM, priority 2006, published 2010)",
  "key": {"ADA-deficient mice [1]": {"system": "ADA-deficient mice", "conditions": "cited from earlier work"}, "[2]": {"system": "corpus cavernosal strips (CCS)", "assay": "EFS-induced relaxation of phenylephrine-precontracted corpus cavernosal strips (CCS) of ADA+ and ADA-/- mice", "format": "cell-based, mouse", "source_text": "Prolonged penile erection in ADA-deficient mice is associated with increased corpus cavernosal relaxation in response to nerve stimulation. To determine if the potent and prolonged penile erection seen in ADA-deficient mice is associated with increased corpus cavernosal relaxation, we evaluated comparatively the relaxation of phenylephrine-precontracted isolated corpus cavernosal strips of ADA+ and ADA−/− mice in response to nerve stimulation^73,74. The corpus cavernosum is under sympathetic influence to maintain a contracted state resulting in a flaccid penis^3. To emulate this situation, contraction was induced by treatment with the α-adrenergic receptor agonist, phenylephrine (10 μM). The maximum phenylephrine-induced contraction was reached within 10-20 s after application to cavernosal strips from ADA+ and ADA−/− mice. Electrical field stimulation (EFS) is commonly used to stimulate the nerves that innervate the smooth muscle cells of the corpus cavernosum to mediate relaxation, corresponding to normal physiological penile erection^19,73,74,92,93. In our studies, EFS induced relaxation of corpus cavernosal strips from both ADA+ and ADA−/− mice in a voltage and frequency-dependent manner (FIGS. 14b and c). For ADA+ mice, relaxation increased incrementally over a standard voltage range with a maximal response at 20 V and 30 Hz.\nElevated adenosine in ADA-deficient mice contributes to increased corpus cavernosal strip relaxation. […]\nFunction experiments. […] The contractility of each isolated corpus cavernosum smooth muscle cells (CCSM) strip was measured using an isometric force transducer (AD Instrument Inc., Georgia, Vt., USA). […] The contractile responses of the strips were analysed by adding 10 μM phenylephrine to the bath, and force changes were recorded in response to drug application and to electrical field stimulation. […] The changes of cAMP and cGMP contents in CC strips were subsequently measured by commercial enzyme immunoassay kit (Amersham Pharmacia) (see below)."}, "[3]": {"system": "multiple animal models, including humans", "conditions": "in vivo; cited from earlier work"}, "[4]": {"system": "corpus cavernosal strips (CCS)", "assay": "Adenosine-induced relaxation of corpus cavernosal strips (CCS)", "format": "cell-based, mouse", "conditions": "CCS of wild type mice, 1-10 μM, adenosine 100 μM", "method": "FIG. 16. […] CCS of wild type mice were treated with different concentrations of adenosine with or without DCF (5 μM), a specific inhibitor of adenosine deaminase. Then the extent (mN) of force was monitored. (b) CCS of wild type mice were treated with 100 μM adenosine in the presence of different concentrations of DCF (0-100 uM). Then the extent of force was measured. Data are expressed as mean±SE. *p<0.05, adenosine treated versus the control, **p<0.05, DCF treated versus the adenosine treated.\nFIG. 17. A2BR signaling is required for adenosine-mediated corpus cavernosal strips (CCS) relaxation. (a) CCS of wild type mice were treated with different concentrations of theophiline (1-10 μM) in the presence or absence of adenosine (100 μM). The force changes were measured by force transducer. Data are expressed as mean±SE. *p<0.05, adenosine treated versus the control, **p<0.05, theophiline treated versus the untreated, N=5. (b) CCS from wild type, A2AR, A1R A2BR and A3R-deficient mice were treated with different concentrations of adenosine. The relaxation was measured by force transducer. Data are expressed as mean±SE. *p<0.05, adenosine treated versus the wild type. (c) CCS were isolated from wild type and A2BR-deficient mice and treated with different concentrations of adenosine in the presence or absence of L-NAME (100 μM) or MRS1706 (10 μM). 10 min after treatment, cellular extracts were collected and cAMP levels were measured by using a commercial enzyme immunoassay kit (Amersham Pharmacia). Data are expressed as mean±SE. *p<0.05, adenosine treated versus the control without treatment; **p<0.05, adenosine treated with MRS1706 versus the adenosine treated alone; ***p<0.05, CCS of A2BR-deficient mice treated with adenosine versus the CCS of wild type mice treated with adenosine. N=6-7. (d) CCS of A2BR and ADA double deficient mice lost the hypersensitivity to nerve stimulation compared to ADA deficient mice.\n(§1) Function experiments. The tunica albuginea was cut longitudinally, starting at the most proximal point of the corpus cavernosum (CC) toward the penile shaft, and the erectile tissue was partially dissected free from the tunica. One strip of tissue (0.3×0.3×3 mm) was obtained from each corpus cavernosum. The contractility of each isolated corpus cavernosum smooth muscle cells (CCSM) strip was measured using an isometric force transducer (AD Instrument Inc., Georgia, Vt., USA). The strip was mounted in a thermostatically controlled tissue bath containing aerated PSS (mM: 119 NaCl, 4.7 KCl, 24 NaHCO 3, 1.2 KH2PO4, 2.5 CaCl2, 1.2 MgSO4, 0.023 EDTA, and 11 glucose; 5 ml volume, 95% O2 and 5% CO2, 37° C.) and stretched to a resting tension of 0.1 mN. The contractile responses of the strips were analysed by adding 10 μM phenylephrine to the bath, and force changes were recorded in response to drug application and to electrical field stimulation. The particular electrical field stimulation parameters of 0-30V, 30 HZ with a pulse width of approximately 0.5 ms, are commonly used in the mice. […] The changes of cAMP and cGMP contents in CC strips were subsequently measured by commercial enzyme immunoassay kit (Amersham Pharmacia) (see below)."}, "[5]": {"system": "corpus cavernosal strips (CCS)", "assay": "EFS-induced relaxation of CCS of SCD transgenic mice and controls", "format": "cell-based, mouse", "method": "FIG. 21. Priapic activity seen in SCD transgenic mice is dependent on elevated adenosine in penis via A2BR signaling. (a) Adenosine levels in the penis increased in SCD transgenic mice. Perchloric acid extracts of penile tissues from SCD transgenic mice and control mice were analyzed by HPLC to determine the levels of adenosine. The data are expressed as mean±SE. *p<0.005, (control n=5 and SCD transgenic mice n=6), SCD transgenic mice versus the controls. (b) Increased corpus cavernosum strips (CCS) relaxation by electrical field stimulation (EFS) in SCD transgenic mice. Relaxation effect of EFS with different voltages (0-30V) at 30 Hz and 0.5 ms pulse width, alternating polarity between pulses, in 10 μM phenylephrine-precontracted CCS from the controls (n=5) and SCD transgenic mice (n=5). (c-e) Prolonged penile erection seen in SCD transgenic mice is due to high levels of adenosine in the penis via A2BR signaling. Average EFS-induced relaxation from the PE-precontracted CC strips of the controls and SCD transgenic mice treated without or with PEG-ADA, MRS1706 or ZM241389. EFS-induced force change (c), duration of relaxation by EFS (d) and area under basal line (e) were representative of the CCS relaxation. (n=5 for the controls and n=5 for SCD transgenic mice with or without PEG-ADA, MRS1706 or ZM241389 treatment, respectively). Data are given as means±SE. *p<0.05, SCD transgenic mice versus the controls, **p<0.05, CCS of […] with PEG-ADA, MRS1706 or ZM241389 treatment versus CCS of SCD transgenic mice without treatment; ***p<0.05, CCS of the control mice with MRS1706 and/or L-NAME treatment versus CCS of the control mice without treatment.\nSickle cell disease (SCD) transgenic mice, expressing exclusively human sickle hemoglobin, were also used. These mice were age-matched, adult male homozygotes [SS^−/−, consisting of a transgene and two targeted gene deletions: (Tg (Hu-miniLCR alpha 1G gamma A gamma delta beta s) Hba0//Hba0 Hbb0//Hbb00) and heterozygotes (SS^−/+, SS^−/− genotype except Hbb0//Hbb+), developed on a mixed-strain background (mouse strains FVB/N, 129, DBA/2, C57BL/6, Black Swiss)^94,95.\nas §1"}, "ADA-deficient mice [6]": {"system": "ADA-deficient mice", "assay": "Spontaneous prolonged penile erection (priapic activity) in ADA-deficient mice, PEG-ADA enzyme therapy", "format": "in vivo, mouse", "conditions": "intraperitoneal injection of PEG-ADA", "method": "The ADA-deficient mice were injected with PEG-ADA weekly. During the course of maintaining our production colony of ADA-deficient mice, we noticed that ADA-deficient male breeders (kept alive by enzyme therapy) frequently presented with prolonged penile erections lasting up to 72 hours (FIG. 1a). The penile erections were typically noticed at the time of the scheduled weekly PEG-ADA injection. We know from earlier studies that the lowest levels of circulating adenosine are achieved during the first day following the PEG-ADA injection^21,28. Adenosine levels rise continually during the subsequent days preceding the next PEG-ADA injection. Thus, adenosine levels are highest just prior to the scheduled weekly injection of PEG-ADA when the priapism was observed^21,28. Priapic erections were never observed in wild type male mice (FIG. 14a).\nProlonged penile erection in ADA-deficient mice depends on pronounced accumulation of adenosine in the penis. We hypothesized that the increased penile erection and corpus cavernosal smooth muscle relaxation in response to nerve stimulation in ADA-deficient mice were due to elevated concentrations of adenosine. To test this hypothesis, adenosine levels were quantified in penile tissue from ADA^+ and ADA^−/− mice^21,23,28. […]"}},
  "note": "“Also recorded” adds a separate entry of the source.",
  "data": [
    {"molecule": "CCCn1c(=O)c2[nH]c(-c3cnn(Cc4cccc(C(F)(F)F)c4)c3)nc2n(CC)c1=O", "note": "[CVT-6883]", "values": [
      {"measurement": "adenosine-mediated pulmonary fibrosis and enlargement of alveolar airspaces", "setting": "ADA-deficient mice [1]", "result": "significantly reduces adenosine-mediated pulmonary fibrosis and enlargement of alveolar airspaces"}
    ]},
    {"molecule": "CNC[C@H](O)c1cccc(O)c1", "note": "[phenylephrine]", "values": [
      {"measurement": "time to maximum phenylephrine-induced contraction", "setting": "[2]; 10 μM, cavernosal strips from ADA+ and ADA-/- mice", "result": "10 to 20", "unit": "s"}
    ]},
    {"molecule": "Cn1c(=O)c2[nH]cnc2n(C)c1=O", "note": "[theophyline, theophylline]", "values": [
      {"measurement": "adenosine-induced penile tumescence", "setting": "[3]", "result": "inhibited adenosine-induced penile tumescence"},
      {"measurement": "inhibition of adenosine-mediated corpus cavernosal strip relaxation", "setting": "[4]", "result": "significantly inhibited adenosine-mediated corpus cavernosal strip relaxation in a dosage dependent manner"}
    ]},
    {"molecule": "PEG-ADA: purified bovine ADA covalently modified with activated polyethylene glycol; modified form of ADA used for enzyme therapy (protein, UniProt P56658 2-363, looked up, PEG, modified form of ADA used for enzyme therapy) Adenosine deaminase: AQTPAFNKPKVELHVHLDGAIKPETILYYGRKRGIALPADTPEELQNIIGMDKPLSLPEFLAKFDYYMPAIAGCREAVKRIAYEFVEMKAKDGVVYVEVRYSPHLLANSKVEPIPWNQAEGDLTPDEVVSLVNQGLQEGERDFGVKVRSILCCMRHQPSWSSEVVELCKKYREQTVVAIDLAGDETIEGSSLFPGHVKAYAEAVKSGVHRTVHAGEVGSANVVKEAVDTLKTERLGHGYHTLEDATLYNRLRQENMHFEVCPWSSYLTGAWKPDTEHPVVRFKNDQVNYSLNTDDPLIFKSTLDTDYQMTKNEMGFTEEEFKRLNINAAKSSFLPEDEKKELLDLLYKAYGMPSPASAEQCL", "values": [
      {"measurement": "pulmonary inflammation and fibrosis", "setting": "ADA-deficient mice [1]; lowering adenosine by PEG-ADA therapy", "result": "can prevent and even reverse aspects of pulmonary inflammation and fibrosis"},
      {"measurement": "force, duration and area under baseline of EFS-induced relaxation", "setting": "[5]; CCS of SCD transgenic mice versus untreated CCS", "result": "significantly reduced the force, duration and area under baseline"},
      {"measurement": "force, duration and area under baseline of EFS-induced relaxation", "setting": "[5]; CCS of the controls", "result": "decreased the force, duration and area under baseline"},
      {"measurement": "force, duration and area under baseline of EFS-induced relaxation", "setting": "[2]; CCS from ADA-/- mice, EFS 5V and 30 Hz for 60 s, versus untreated CCS", "result": "significantly reduced the force, duration and area under baseline"},
      {"measurement": "EFS-induced CCS relaxation", "setting": "[2]; CCS of control (ADA+) mice, EFS 5V and 30 Hz", "result": "decreased the EFS-induced CCS relaxation"},
      {"measurement": "prolonged penile erection / priapic activity", "setting": "ADA-deficient mice [6]", "result": "quickly corrected; also recorded: quickly reverses the priapic activity; also recorded: relieved the prolonged penile erection"}
    ]}
  ]
}
